Laboratory results as given in patent US20220010021A1 (Sanofi, published 2022).

T1: human beta-Klotho (KLB) (human, UniProt Q86Z14 53-997)
T1 construct: also called human KLB
T1 sequence (looked up): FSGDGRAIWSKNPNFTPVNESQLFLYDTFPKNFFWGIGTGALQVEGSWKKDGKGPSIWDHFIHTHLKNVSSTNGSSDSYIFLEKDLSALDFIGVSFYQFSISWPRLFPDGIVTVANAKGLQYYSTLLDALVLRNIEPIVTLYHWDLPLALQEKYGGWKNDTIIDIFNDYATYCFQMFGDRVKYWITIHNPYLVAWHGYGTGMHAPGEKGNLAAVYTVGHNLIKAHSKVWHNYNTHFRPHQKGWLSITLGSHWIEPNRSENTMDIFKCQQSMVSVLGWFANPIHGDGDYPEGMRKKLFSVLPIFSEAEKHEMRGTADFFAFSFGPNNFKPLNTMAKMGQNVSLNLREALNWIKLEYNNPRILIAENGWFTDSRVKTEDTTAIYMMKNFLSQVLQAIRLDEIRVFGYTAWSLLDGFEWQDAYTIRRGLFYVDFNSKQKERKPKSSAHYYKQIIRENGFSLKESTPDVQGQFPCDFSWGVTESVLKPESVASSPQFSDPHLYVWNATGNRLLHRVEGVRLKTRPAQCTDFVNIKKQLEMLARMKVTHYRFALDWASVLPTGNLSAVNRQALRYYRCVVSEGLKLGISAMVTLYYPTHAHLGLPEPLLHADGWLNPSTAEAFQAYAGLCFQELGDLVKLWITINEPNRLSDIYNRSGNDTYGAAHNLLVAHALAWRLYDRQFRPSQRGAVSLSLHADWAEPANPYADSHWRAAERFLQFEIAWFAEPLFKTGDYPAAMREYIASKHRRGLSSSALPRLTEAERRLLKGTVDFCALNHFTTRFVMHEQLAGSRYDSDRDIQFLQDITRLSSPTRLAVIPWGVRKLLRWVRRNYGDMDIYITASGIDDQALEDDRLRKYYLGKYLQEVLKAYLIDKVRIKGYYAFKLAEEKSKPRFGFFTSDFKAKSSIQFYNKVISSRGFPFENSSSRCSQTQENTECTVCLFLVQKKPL

T2: human beta-Klotho (KLB) (human, UniProt Q86Z14 53-997)
T2 construct: Bought protein; also called human KLB; β-Klotho
T2 sequence (looked up): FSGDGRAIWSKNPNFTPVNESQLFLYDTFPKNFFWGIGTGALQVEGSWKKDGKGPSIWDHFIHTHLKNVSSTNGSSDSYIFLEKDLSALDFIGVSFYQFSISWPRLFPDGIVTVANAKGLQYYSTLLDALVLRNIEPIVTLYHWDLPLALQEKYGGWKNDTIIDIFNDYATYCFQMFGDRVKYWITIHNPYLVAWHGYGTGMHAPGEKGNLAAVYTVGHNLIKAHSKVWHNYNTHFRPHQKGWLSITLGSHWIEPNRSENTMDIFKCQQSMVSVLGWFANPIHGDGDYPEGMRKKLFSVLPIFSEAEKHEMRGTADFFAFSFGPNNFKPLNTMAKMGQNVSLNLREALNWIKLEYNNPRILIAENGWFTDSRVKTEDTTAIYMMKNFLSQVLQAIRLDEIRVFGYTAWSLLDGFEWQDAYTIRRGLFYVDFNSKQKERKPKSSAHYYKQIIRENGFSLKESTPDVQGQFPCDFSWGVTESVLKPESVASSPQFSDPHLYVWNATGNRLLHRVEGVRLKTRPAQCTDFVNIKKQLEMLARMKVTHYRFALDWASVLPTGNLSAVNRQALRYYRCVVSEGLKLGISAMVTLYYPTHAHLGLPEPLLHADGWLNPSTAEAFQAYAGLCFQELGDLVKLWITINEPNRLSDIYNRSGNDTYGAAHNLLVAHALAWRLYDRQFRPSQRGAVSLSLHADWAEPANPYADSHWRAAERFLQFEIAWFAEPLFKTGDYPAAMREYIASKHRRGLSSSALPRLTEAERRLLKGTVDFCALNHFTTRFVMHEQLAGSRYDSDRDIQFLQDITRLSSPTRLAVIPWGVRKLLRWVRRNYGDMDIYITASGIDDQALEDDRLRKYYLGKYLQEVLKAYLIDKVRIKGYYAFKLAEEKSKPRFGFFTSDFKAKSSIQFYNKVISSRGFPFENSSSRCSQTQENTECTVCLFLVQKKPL


Key:
human beta-Klotho (KLB) [1] = target: T1, human beta-Klotho (KLB); test: BLI off-rate screen (Octet), Ab captured via Fc;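 note: antibody supernatants applied at 25 µg/mL, dissociation monitored over 1800 s in D-PBS with 0.1% BSA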
[2] = target: human FGFR1c/KLB cell surface receptor complex on iLite FGF21 reporter cells (human, UniProt P11362 22-822; Q86Z14 1-1044); test: cell-based or functional assay
[3] = target: cell surface receptor composed of FGFR1c and co-receptor beta-Klotho (KLB) (human, UniProt P11362 22-822; Q86Z14 1-1044); test: cell-based or functional assay
human beta-Klotho (KLB) [4] = target: T2, human beta-Klotho (KLB); test: BLI off-rate screening (Octet), crude supernatant;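 note: supernatants tested at 25 µg/mL, dissociation from biosensors recorded in D-PBS with 0.1% BSA over 1800 s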
Throughout, for Mean E max (%): reference of the scale not given here.
Throughout, for Mean E max, Luciferase reporter gene assay: reference of the scale not given here.

Sequence of human FGFR1c/KLB cell surface receptor complex on iLite FGF21 reporter cells (P11362 22-822, chain 1 of 2): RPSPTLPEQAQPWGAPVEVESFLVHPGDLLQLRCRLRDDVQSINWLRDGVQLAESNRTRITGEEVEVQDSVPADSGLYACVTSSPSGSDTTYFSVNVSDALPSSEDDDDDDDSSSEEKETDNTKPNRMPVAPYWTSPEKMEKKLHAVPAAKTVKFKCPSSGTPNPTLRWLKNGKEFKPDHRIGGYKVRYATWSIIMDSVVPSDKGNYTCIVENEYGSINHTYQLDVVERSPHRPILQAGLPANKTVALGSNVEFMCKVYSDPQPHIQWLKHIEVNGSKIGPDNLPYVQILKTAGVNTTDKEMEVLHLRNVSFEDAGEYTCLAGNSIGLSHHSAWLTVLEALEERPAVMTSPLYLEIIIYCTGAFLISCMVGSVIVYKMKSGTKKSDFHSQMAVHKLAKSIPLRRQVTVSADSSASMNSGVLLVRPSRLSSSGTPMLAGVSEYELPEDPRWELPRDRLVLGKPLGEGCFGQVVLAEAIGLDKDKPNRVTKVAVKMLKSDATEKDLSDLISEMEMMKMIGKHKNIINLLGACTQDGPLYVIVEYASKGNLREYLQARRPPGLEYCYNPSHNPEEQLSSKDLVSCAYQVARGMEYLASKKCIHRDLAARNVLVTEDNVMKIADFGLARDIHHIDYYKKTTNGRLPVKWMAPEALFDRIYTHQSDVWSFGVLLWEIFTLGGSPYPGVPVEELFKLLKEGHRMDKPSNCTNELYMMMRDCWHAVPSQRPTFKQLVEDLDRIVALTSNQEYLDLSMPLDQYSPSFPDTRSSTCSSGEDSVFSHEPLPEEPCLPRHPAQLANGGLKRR
Sequence of human FGFR1c/KLB cell surface receptor complex on iLite FGF21 reporter cells (Q86Z14 whole entry, chain 2 of 2): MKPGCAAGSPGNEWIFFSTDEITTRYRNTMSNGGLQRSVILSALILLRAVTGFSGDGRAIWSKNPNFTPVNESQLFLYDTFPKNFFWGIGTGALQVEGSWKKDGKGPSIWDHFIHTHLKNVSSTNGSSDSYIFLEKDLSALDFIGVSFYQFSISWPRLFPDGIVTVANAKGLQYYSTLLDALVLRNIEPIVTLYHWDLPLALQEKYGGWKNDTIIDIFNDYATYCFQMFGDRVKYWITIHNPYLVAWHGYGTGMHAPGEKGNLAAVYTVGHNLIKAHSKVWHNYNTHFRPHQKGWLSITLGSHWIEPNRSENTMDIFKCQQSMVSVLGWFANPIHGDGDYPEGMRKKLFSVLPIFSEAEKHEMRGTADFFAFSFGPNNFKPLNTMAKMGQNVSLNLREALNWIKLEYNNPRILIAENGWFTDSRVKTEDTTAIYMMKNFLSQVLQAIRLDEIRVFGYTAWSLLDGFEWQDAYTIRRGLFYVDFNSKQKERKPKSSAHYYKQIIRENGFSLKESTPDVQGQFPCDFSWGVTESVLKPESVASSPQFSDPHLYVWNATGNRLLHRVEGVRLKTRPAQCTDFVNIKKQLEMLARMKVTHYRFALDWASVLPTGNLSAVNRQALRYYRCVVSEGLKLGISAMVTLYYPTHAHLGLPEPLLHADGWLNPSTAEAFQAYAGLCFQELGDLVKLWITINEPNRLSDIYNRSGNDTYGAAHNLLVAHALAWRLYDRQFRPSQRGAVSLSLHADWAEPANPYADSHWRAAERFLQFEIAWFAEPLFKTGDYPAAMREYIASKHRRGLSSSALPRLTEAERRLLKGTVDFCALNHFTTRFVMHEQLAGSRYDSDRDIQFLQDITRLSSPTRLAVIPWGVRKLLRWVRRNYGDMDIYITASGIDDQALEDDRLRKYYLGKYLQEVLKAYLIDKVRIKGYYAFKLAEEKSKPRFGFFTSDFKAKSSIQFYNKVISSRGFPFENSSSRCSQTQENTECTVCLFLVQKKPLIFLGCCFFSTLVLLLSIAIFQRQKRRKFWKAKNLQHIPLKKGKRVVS
Sequence of cell surface receptor composed of FGFR1c and co-receptor beta-Klotho (KLB) (P11362 22-822, chain 1 of 2): as the sequence (P11362 22-822, chain 1 of 2) above
Sequence of cell surface receptor composed of FGFR1c and co-receptor beta-Klotho (KLB) (Q86Z14 whole entry, chain 2 of 2): as the sequence (Q86Z14 whole entry, chain 2 of 2) above

Row | Binder | koff (human beta-Klotho (KLB) [1]) [s⁻¹] | Mean E max (%) [2] [%] | Mean EC50 [2] [nM] | Mean E max, Luciferase reporter gene assay [3] [%] | Mean EC50, Luciferase reporter gene assay [3] [nM] | koff (human beta-Klotho (KLB) [4]) [s⁻¹]
1 | 16H7 variant, light chain S55I (antibody, human IgG4 S228P, lambda, V domains shown, IgG4 backbone) VH: not shown VL: SYVLTQPPSVSVAPGQTARITCGGNNIGSESVHWYQQKPGQAPVLVVYDDSDRPIGIPERFSGSNSGNTATLTISRVEAGDEADYYCQVWDGNSDHVVFGGGTKLTVLG | 1.3e-05 | 110 | 0.133 |  |  | 
2 | 16H7 light chain variant V32R (antibody, IgG4, V domains shown, IgG4 backbone) VH: not shown VL: SYVLTQPPSVSVAPGQTARITCGGNNIGSESRHWYQQKPGQAPVLVVYDDSDRPSGIPERFSGSNSGNTATLTISRVEAGDEADYYCQVWDGNSDHVVFGGGTKLTVLG |  |  |  | 112 | 0.135 | 2.3e-06
3 | 16H7 light chain variant D50E (antibody, IgG4, V domains shown, IgG4 backbone) VH: not shown VL: SYVLTQPPSVSVAPGQTARITCGGNNIGSESVHWYQQKPGQAPVLVVYDESDRPSGIPERFSGSNSGNTATLTISRVEAGDEADYYCQVWDGNSDHVVFGGGTKLTVLG |  |  |  | 91 | 0.123 | 0.00016
4 | 16H7 light chain variant D50M (antibody, IgG4, V domains shown, IgG4 backbone) VH: not shown VL: SYVLTQPPSVSVAPGQTARITCGGNNIGSESVHWYQQKPGQAPVLVVYDMSDRPSGIPERFSGSNSGNTATLTISRVEAGDEADYYCQVWDGNSDHVVFGGGTKLTVLG |  |  |  | 110 | 0.125 | 0.00013
5 | 16H7 light chain variant D50F (antibody, IgG4, V domains shown, IgG4 backbone) VH: not shown VL: SYVLTQPPSVSVAPGQTARITCGGNNIGSESVHWYQQKPGQAPVLVVYDFSDRPSGIPERFSGSNSGNTATLTISRVEAGDEADYYCQVWDGNSDHVVFGGGTKLTVLG |  |  |  | 113 | 0.124 | 0.0001
6 | 16H7 light chain variant D49W (antibody, IgG4, V domains shown, IgG4 backbone) VH: not shown VL: SYVLTQPPSVSVAPGQTARITCGGNNIGSESVHWYQQKPGQAPVLVVYWDSDRPSGIPERFSGSNSGNTATLTISRVEAGDEADYYCQVWDGNSDHVVFGGGTKLTVLG |  |  |  | 101 | 0.126 | 0.00032
7 | 16H7 variant, light chain S55L (antibody, IgG4, V domains shown, IgG4 backbone; copies: 2 + 2) VH: not shown VL: SYVLTQPPSVSVAPGQTARITCGGNNIGSESVHWYQQKPGQAPVLVVYDDSDRPLGIPERFSGSNSGNTATLTISRVEAGDEADYYCQVWDGNSDHVVFGGGTKLTVLG | 8.4e-05 | 97 | 0.126 |  |  | 
8 | 16H7 variant, light chain S55R (antibody, IgG4, V domains shown, IgG4 backbone; copies: 2 + 2) VH: not shown VL: SYVLTQPPSVSVAPGQTARITCGGNNIGSESVHWYQQKPGQAPVLVVYDDSDRPRGIPERFSGSNSGNTATLTISRVEAGDEADYYCQVWDGNSDHVVFGGGTKLTVLG | 4.9e-05 | 100 | 0.143 |  |  | 
9 | 16H7 light chain variant D50H (antibody, IgG4, V domains shown, IgG4 backbone) VH: not shown VL: SYVLTQPPSVSVAPGQTARITCGGNNIGSESVHWYQQKPGQAPVLVVYDHSDRPSGIPERFSGSNSGNTATLTISRVEAGDEADYYCQVWDGNSDHVVFGGGTKLTVLG |  |  |  | 94 | 0.126 | 0.00019
10 | 16H7 light chain variant D50C (antibody, IgG4, V domains shown, IgG4 backbone) VH: not shown VL: SYVLTQPPSVSVAPGQTARITCGGNNIGSESVHWYQQKPGQAPVLVVYDCSDRPSGIPERFSGSNSGNTATLTISRVEAGDEADYYCQVWDGNSDHVVFGGGTKLTVLG |  |  |  | 109 | 0.153 | 3.9e-05
11 | 16H7 light chain variant D50L (antibody, IgG4, V domains shown, IgG4 backbone) VH: not shown VL: SYVLTQPPSVSVAPGQTARITCGGNNIGSESVHWYQQKPGQAPVLVVYDLSDRPSGIPERFSGSNSGNTATLTISRVEAGDEADYYCQVWDGNSDHVVFGGGTKLTVLG |  |  |  | 106 | 0.095 | 0.00013
12 | 16H7 light chain variant D49G (antibody, IgG4, V domains shown, IgG4 backbone) VH: not shown VL: SYVLTQPPSVSVAPGQTARITCGGNNIGSESVHWYQQKPGQAPVLVVYGDSDRPSGIPERFSGSNSGNTATLTISRVEAGDEADYYCQVWDGNSDHVVFGGGTKLTVLG |  |  |  | 102 | 0.102 | 0.00029
13 | 16H7 light chain variant D49S (antibody, IgG4, V domains shown, IgG4 backbone) VH: not shown VL: SYVLTQPPSVSVAPGQTARITCGGNNIGSESVHWYQQKPGQAPVLVVYSDSDRPSGIPERFSGSNSGNTATLTISRVEAGDEADYYCQVWDGNSDHVVFGGGTKLTVLG |  |  |  | 98 | 0.098 | 9.9e-05
14 | 16H7 variant, light chain S55N (antibody, human IgG4 S228P, lambda, V domains shown, IgG4 backbone) VH: not shown VL: SYVLTQPPSVSVAPGQTARITCGGNNIGSESVHWYQQKPGQAPVLVVYDDSDRPNGIPERFSGSNSGNTATLTISRVEAGDEADYYCQVWDGNSDHVVFGGGTKLTVLG | 1.7e-05 | 111 | 0.141 |  |  | 
15 | 16H7 variant, light chain S55V (antibody, human IgG4 S228P, lambda, V domains shown, IgG4 backbone) VH: not shown VL: SYVLTQPPSVSVAPGQTARITCGGNNIGSESVHWYQQKPGQAPVLVVYDDSDRPVGIPERFSGSNSGNTATLTISRVEAGDEADYYCQVWDGNSDHVVFGGGTKLTVLG | 4.4e-05 | 100 | 0.131 |  |  | 
16 | 16H7 variant, light chain S55P (antibody, human IgG4 S228P, lambda, V domains shown, IgG4 backbone) VH: not shown VL: SYVLTQPPSVSVAPGQTARITCGGNNIGSESVHWYQQKPGQAPVLVVYDDSDRPPGIPERFSGSNSGNTATLTISRVEAGDEADYYCQVWDGNSDHVVFGGGTKLTVLG | 3.2e-05 | 99 | 0.109 |  |  | 
17 | 16H7 light chain variant D50A (antibody, IgG4, V domains shown, IgG4 backbone) VH: not shown VL: SYVLTQPPSVSVAPGQTARITCGGNNIGSESVHWYQQKPGQAPVLVVYDASDRPSGIPERFSGSNSGNTATLTISRVEAGDEADYYCQVWDGNSDHVVFGGGTKLTVLG |  |  |  | 105 | 0.211 | 7.6e-05
18 | 16H7 light chain variant D50I (antibody, IgG4, V domains shown, IgG4 backbone) VH: not shown VL: SYVLTQPPSVSVAPGQTARITCGGNNIGSESVHWYQQKPGQAPVLVVYDISDRPSGIPERFSGSNSGNTATLTISRVEAGDEADYYCQVWDGNSDHVVFGGGTKLTVLG |  |  |  | 109 | 0.114 | 8.2e-05
19 | 16H7 variant, light chain S55Y (antibody, IgG4, V domains shown, IgG4 backbone; copies: 2 + 2) VH: not shown VL: SYVLTQPPSVSVAPGQTARITCGGNNIGSESVHWYQQKPGQAPVLVVYDDSDRPYGIPERFSGSNSGNTATLTISRVEAGDEADYYCQVWDGNSDHVVFGGGTKLTVLG | 1.8e-05 | 113 | 0.126 |  |  | 
20 | 16H7 light chain variant D50G (antibody, IgG4, V domains shown, IgG4 backbone) VH: not shown VL: SYVLTQPPSVSVAPGQTARITCGGNNIGSESVHWYQQKPGQAPVLVVYDGSDRPSGIPERFSGSNSGNTATLTISRVEAGDEADYYCQVWDGNSDHVVFGGGTKLTVLG |  |  |  | 107 | 0.136 | 1.7e-05
21 | 16H7 variant, light chain S55T (antibody, human IgG4 S228P, lambda, V domains shown, IgG4 backbone) VH: not shown VL: SYVLTQPPSVSVAPGQTARITCGGNNIGSESVHWYQQKPGQAPVLVVYDDSDRPTGIPERFSGSNSGNTATLTISRVEAGDEADYYCQVWDGNSDHVVFGGGTKLTVLG | 1.3e-05 | 100 | 0.109 |  |  | 
